Test results as given in paper PMC9482650, “Quantitative fragmentomics allow affinity mapping of interactomes” (Nature Communications, 2022).

T1: APBA1_1, Q02410
T1 sequence (Q02410 651-752, limits assumed, looked up): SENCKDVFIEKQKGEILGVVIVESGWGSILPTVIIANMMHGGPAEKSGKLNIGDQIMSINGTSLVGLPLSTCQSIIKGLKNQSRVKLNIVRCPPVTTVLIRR

T2: APBA1_2, Q02410
T2 sequence (Q02410 742-832, limits assumed, looked up): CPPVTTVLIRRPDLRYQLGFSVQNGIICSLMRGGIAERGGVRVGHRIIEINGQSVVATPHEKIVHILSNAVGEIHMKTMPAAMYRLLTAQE

T3: APBA2_1, Q99767
T3 sequence (Q99767 563-664, limits assumed, looked up): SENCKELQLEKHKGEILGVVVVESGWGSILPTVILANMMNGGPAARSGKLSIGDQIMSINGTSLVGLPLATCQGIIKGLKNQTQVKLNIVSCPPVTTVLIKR

T4: APBA3_1, O96018
T4 sequence (O96018 389-490, limits assumed, looked up): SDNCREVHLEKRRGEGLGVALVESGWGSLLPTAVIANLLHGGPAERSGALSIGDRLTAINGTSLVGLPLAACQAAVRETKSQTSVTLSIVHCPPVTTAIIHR

T5: DFNB31_1, Q9P202
T5 sequence (Q9P202 135-233, limits assumed, looked up): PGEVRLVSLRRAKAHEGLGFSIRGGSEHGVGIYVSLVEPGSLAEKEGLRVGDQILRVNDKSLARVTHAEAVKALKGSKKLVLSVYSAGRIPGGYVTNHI

T6: FRMPD1, Q5SYB0
T6 sequence (Q5SYB0 52-145, limits assumed, looked up): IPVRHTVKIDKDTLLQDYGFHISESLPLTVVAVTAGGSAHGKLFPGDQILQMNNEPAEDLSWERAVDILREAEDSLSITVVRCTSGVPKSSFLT

T7: GRIP1_7, Q9Y3R0
T7 sequence (Q9Y3R0 999-1096, limits assumed, looked up): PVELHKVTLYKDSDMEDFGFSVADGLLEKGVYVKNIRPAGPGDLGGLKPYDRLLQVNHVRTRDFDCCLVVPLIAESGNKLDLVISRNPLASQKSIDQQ

T8: LRRC7, Q96NW7
T8 sequence (Q96NW7 1440-1537, limits assumed, looked up): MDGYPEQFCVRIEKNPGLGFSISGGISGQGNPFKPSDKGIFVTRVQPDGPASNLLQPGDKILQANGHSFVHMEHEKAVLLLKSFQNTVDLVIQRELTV

T9: NHERF3_1, Q5T2W1
T9 sequence (Q5T2W1 4-100, limits assumed, looked up): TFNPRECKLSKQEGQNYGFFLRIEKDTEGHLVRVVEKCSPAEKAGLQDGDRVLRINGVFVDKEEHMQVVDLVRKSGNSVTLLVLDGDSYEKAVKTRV

T10: NHERF3_3, Q5T2W1
T10 sequence (Q5T2W1 238-333, limits assumed, looked up): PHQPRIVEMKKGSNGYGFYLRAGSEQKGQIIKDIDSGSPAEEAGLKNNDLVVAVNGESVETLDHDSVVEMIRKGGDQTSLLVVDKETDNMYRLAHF

T11: NHERF3_4, Q5T2W1
T11 sequence (Q5T2W1 373-468, limits assumed, looked up): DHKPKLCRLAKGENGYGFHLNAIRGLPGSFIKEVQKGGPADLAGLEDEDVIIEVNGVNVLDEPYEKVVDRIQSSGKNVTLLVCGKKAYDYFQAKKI

T12: PTPN13_1, Q12923
T12 sequence (Q12923 1088-1188, limits assumed, looked up): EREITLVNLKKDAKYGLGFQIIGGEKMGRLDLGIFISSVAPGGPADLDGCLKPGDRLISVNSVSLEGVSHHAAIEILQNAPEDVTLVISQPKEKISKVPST

B1: TBC1D10A, Q9BXI6 (peptide)
chain: TSQESEDTYL
B2: IQSEC2, Q5JU85 (peptide)
chain: AKPSRISTVV
B3: PLEKHA2, Q9HB19 (peptide)
chain: DDENIRTSDV
B4: ERBB2, P04626 (peptide)
chain: PEYLGLDVPV

Key:
Test in all cases: holdup assay
Design in all cases: key: below the threshold = too weak to quantify, mostly under pKd 3.1 to 4
Settings in all cases: plain residues with an end cap or a label only (N-terminal biotin on a linker: ado-ado)
APBA1_1, Q02410 = biological target: T1, APBA1_1, Q02410
APBA1_2, Q02410 = biological target: T2, APBA1_2, Q02410
APBA2_1, Q99767 = biological target: T3, APBA2_1, Q99767
APBA3_1, O96018 = biological target: T4, APBA3_1, O96018
DFNB31_1, Q9P202 = biological target: T5, DFNB31_1, Q9P202
DLG1_1, Q12959 = biological target: DLG1_1, Q12959
DLG1_2, Q12959 = biological target: DLG1_2, Q12959
DLG1_3, Q12959 = biological target: DLG1_3, Q12959
DLG2_3, Q15700 = biological target: DLG2_3, Q15700
FRMPD1, Q5SYB0 = biological target: T6, FRMPD1, Q5SYB0
FRMPD3, Q5JV73 = biological target: FRMPD3, Q5JV73
Chain of FRMPD3, Q5JV73 (Q5JV73 12-100): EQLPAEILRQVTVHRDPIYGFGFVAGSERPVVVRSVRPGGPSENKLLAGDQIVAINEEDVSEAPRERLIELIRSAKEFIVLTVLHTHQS

FRMPD4, Q14CM0 = biological target: FRMPD4, Q14CM0
Chain of FRMPD4, Q14CM0 (Q14CM0 67-160): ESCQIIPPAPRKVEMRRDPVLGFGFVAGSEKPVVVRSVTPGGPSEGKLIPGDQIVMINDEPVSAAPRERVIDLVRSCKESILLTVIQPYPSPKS

GRID2IP_1, A4D2P6 = biological target: GRID2IP_1, A4D2P6
Chain of GRID2IP_1, A4D2P6 (A4D2P6 1-87): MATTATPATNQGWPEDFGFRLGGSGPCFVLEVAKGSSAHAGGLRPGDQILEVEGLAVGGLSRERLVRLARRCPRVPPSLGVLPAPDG

GRIP1_7, Q9Y3R0 = biological target: T7, GRIP1_7, Q9Y3R0
GRIP2_7, Q9C0E4 = biological target: GRIP2_7, Q9C0E4
Chain of GRIP2_7, Q9C0E4 (Q9C0E4 934-1023): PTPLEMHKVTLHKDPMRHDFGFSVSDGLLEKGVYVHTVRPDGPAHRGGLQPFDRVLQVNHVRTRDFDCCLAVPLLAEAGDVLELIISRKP

HTRA2, O43464 = biological target: HTRA2, O43464
Chain of HTRA2, O43464 (O43464 355-458): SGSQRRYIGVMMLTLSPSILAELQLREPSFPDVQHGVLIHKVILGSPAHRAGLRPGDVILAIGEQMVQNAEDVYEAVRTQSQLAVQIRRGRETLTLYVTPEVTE

IL16_4, Q14005 = biological target: IL16_4, Q14005
Chain of IL16_4, Q14005 (Q14005 1229-1329): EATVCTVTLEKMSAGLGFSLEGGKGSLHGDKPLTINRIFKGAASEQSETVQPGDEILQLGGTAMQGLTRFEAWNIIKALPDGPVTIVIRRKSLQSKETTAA

Inadl_2, Q8NI35 = biological target: Inadl_2, Q8NI35
Chain of Inadl_2, Q8NI35 (Q8NI35 238-335): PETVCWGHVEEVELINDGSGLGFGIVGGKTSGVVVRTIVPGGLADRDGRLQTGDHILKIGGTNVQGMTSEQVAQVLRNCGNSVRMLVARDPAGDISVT

Inadl_5, Q8NI35 = biological target: Inadl_5, Q8NI35
Chain of Inadl_5, Q8NI35 (Q8NI35 673-780): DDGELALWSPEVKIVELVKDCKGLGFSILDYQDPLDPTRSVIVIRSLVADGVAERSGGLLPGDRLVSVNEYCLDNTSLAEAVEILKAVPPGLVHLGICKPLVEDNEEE

LRRC7, Q96NW7 = biological target: T8, LRRC7, Q96NW7
MAGI2_2, Q86UL8 = biological target: MAGI2_2, Q86UL8
Chain of MAGI2_2, Q86UL8 (Q86UL8 410-522): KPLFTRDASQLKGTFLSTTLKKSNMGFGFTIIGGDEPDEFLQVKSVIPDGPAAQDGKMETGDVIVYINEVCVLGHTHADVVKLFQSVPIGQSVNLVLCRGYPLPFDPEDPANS

MAGI2_3, Q86UL8 = biological target: MAGI2_3, Q86UL8
Chain of MAGI2_3, Q86UL8 (Q86UL8 600-682): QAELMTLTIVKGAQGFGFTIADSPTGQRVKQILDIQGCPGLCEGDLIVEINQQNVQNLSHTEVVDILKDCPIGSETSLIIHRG

NHERF3_1, Q5T2W1 = biological target: T9, NHERF3_1, Q5T2W1
NHERF3_3, Q5T2W1 = biological target: T10, NHERF3_3, Q5T2W1
NHERF3_4, Q5T2W1 = biological target: T11, NHERF3_4, Q5T2W1
PTPN13_1, Q12923 = biological target: T12, PTPN13_1, Q12923

Binder | pKd (APBA1_1, Q02410) | pKd (APBA1_2, Q02410) | pKd (APBA2_1, Q99767) | pKd (APBA3_1, O96018) | pKd (DFNB31_1, Q9P202) | pKd (DLG1_1, Q12959) | pKd (DLG1_2, Q12959) | pKd (DLG1_3, Q12959) | pKd (DLG2_3, Q15700) | pKd (FRMPD1, Q5SYB0) | pKd (FRMPD3, Q5JV73) | pKd (FRMPD4, Q14CM0) | pKd (GRID2IP_1, A4D2P6) | pKd (GRIP1_7, Q9Y3R0) | pKd (GRIP2_7, Q9C0E4) | pKd (HTRA2, O43464) | pKd (IL16_4, Q14005) | pKd (Inadl_2, Q8NI35) | pKd (Inadl_5, Q8NI35) | pKd (LRRC7, Q96NW7) | other results
B1 | below the threshold | below the threshold | below the threshold | below the threshold | 3.62 | below the threshold | below the threshold | below the threshold | below the threshold | below the threshold | 4.39 | 5.3 | below the threshold | below the threshold | below the threshold | below the threshold | below the threshold | below the threshold | below the threshold | 3.85 | pKd (MAGI2_2, Q86UL8): below the threshold; pKd (MAGI2_3, Q86UL8): below the threshold; pKd (NHERF3_1, Q5T2W1): 5.69; pKd (NHERF3_3, Q5T2W1): 3.59; pKd (NHERF3_4, Q5T2W1): 3.48; pKd (PTPN13_1, Q12923): below the threshold
B2 | below the threshold | 3.49 | below the threshold | below the threshold | below the threshold | 4.81 | 5.52 | below the threshold | 4.34 | below the threshold | below the threshold | below the threshold | below the threshold | below the threshold | below the threshold | below the threshold | 3.51 | below the threshold | 4.21 | below the threshold | pKd (MAGI2_2, Q86UL8): 5.23; pKd (MAGI2_3, Q86UL8): 3.55; pKd (NHERF3_1, Q5T2W1): below the threshold; pKd (NHERF3_3, Q5T2W1): below the threshold; pKd (NHERF3_4, Q5T2W1): 3.73; pKd (PTPN13_1, Q12923): below the threshold
B3 | below the threshold | below the threshold | below the threshold | below the threshold | below the threshold | 3.8 | 4.46 | below the threshold | below the threshold | below the threshold | below the threshold | below the threshold | below the threshold | below the threshold | below the threshold | below the threshold | below the threshold | below the threshold | below the threshold | 3.72 | pKd (MAGI2_2, Q86UL8): below the threshold; pKd (MAGI2_3, Q86UL8): below the threshold; pKd (NHERF3_1, Q5T2W1): below the threshold; pKd (NHERF3_3, Q5T2W1): below the threshold; pKd (NHERF3_4, Q5T2W1): below the threshold; pKd (PTPN13_1, Q12923): below the threshold
B4 | below the threshold | below the threshold | below the threshold | below the threshold | below the threshold | below the threshold | below the threshold | below the threshold | below the threshold | below the threshold | 3.78 | 4.39 | below the threshold | 3.52 | below the threshold | below the threshold | 3.72 | below the threshold | below the threshold | below the threshold | pKd (MAGI2_2, Q86UL8): below the threshold; pKd (MAGI2_3, Q86UL8): 3.5; pKd (NHERF3_1, Q5T2W1): below the threshold; pKd (NHERF3_3, Q5T2W1): below the threshold; pKd (NHERF3_4, Q5T2W1): 3.59; pKd (PTPN13_1, Q12923): below the threshold
